# Experimental data: patent US20090005257A1 (published 2009)
# T1: TNF receptor 1 Fc fusion protein (human, UniProt P19438 30-211)
# T1 construct: Bought; also called recombinant TNF receptor 1 (p55); human Tumor Necrosis Factor Receptor 1; not shown: Fc part of the bought fusion protein (captured by an anti-human Fc antibody)
# T1 sequence (looked up): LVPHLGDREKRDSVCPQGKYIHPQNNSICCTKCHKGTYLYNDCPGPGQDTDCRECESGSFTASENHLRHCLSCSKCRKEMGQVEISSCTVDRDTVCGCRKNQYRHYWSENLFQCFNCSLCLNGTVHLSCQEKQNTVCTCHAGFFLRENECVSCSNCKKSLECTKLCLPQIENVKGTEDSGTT
# T2: human Tumor Necrosis Factor Receptor 1 (TNFR1) expressed on HeLa cells (human, UniProt P19438 30-455)
# T2 sequence (looked up): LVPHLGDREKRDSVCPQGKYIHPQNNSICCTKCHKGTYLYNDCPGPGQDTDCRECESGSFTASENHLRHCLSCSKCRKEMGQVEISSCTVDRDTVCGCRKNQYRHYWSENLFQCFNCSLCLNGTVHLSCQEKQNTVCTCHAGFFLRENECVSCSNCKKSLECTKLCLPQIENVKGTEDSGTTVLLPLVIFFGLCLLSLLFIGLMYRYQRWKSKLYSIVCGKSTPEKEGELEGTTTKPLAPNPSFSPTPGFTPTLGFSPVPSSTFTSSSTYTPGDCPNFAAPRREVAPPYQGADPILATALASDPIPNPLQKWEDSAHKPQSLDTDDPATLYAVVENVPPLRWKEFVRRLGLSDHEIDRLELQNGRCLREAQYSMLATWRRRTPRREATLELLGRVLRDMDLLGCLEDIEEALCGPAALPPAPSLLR
# Assays:
# protein A [1] = target: T3, protein A (UniProt P38507 37-477); assay: phage ELISA on protein A, heated 80 C against unheated, titration (Section 5)
# T3 construct: also called pA
# Description: (§1) After biotinylation of the phage, for each clone, a 100 μl sample of phage was transferred to a thin-wall PCR tube (and the remaining biotinylated phage was kept on ice). The tube was placed in a PCR apparatus for incubation at 80° C. during 10 min (temperature of cover lid: 85° C.). After heating, the tube was rapidly cooled down to 4° C. in the PCR apparatus.
# (§2) ELISA plates were coated and blocked as described in Section 4. The samples were transferred to the empty wells of coated/blocked ELISA plates, and incubated for 2 hours at room temperature. Unbound phage was then removed by washing the wells 6-ties with PBS. For detection, Str-HRP (from a 1 mg/ml stock in PBS) were diluted 1/2000 in PBS supplemented with 2% v/v TWEEN 20 (Polyoxyethylensorbitan monolaurate; for protein A-based ELISA) or 2% w/v BSA (for protein L-based ELISA), and 100 μl of the resulting solution was added to each ELISA well. After incubation for 1 hour at room temperature, the unbound conjugate was removed by washing the wells 6-times with PBS. For colorimetric reaction, a 10 mg/ml solution of TMB (tetramethylbenzidine) was diluted 100-fold in a buffer of 0.1 M sodium acetate, pH 6.0. Next, hydrogen peroxyde was added (0.4 ul per ml of buffer/TMB, and 100 ul of this solution was added to each ELISA well. After color (blue) developed, the reaction was stopped by adding 50 μl of 1 M sulfuric acid per well (color turns to yellow). The optical density was recorded at 450 nm.
# human serum albumin [2] = target: T4, human serum albumin (human, UniProt P02768 25-609); assay: phage ELISA on HSA, heated 80 C 10 min against unheated
# T4 construct: also called HSA
# T4 sequence (P02768 25-609 limits assumed): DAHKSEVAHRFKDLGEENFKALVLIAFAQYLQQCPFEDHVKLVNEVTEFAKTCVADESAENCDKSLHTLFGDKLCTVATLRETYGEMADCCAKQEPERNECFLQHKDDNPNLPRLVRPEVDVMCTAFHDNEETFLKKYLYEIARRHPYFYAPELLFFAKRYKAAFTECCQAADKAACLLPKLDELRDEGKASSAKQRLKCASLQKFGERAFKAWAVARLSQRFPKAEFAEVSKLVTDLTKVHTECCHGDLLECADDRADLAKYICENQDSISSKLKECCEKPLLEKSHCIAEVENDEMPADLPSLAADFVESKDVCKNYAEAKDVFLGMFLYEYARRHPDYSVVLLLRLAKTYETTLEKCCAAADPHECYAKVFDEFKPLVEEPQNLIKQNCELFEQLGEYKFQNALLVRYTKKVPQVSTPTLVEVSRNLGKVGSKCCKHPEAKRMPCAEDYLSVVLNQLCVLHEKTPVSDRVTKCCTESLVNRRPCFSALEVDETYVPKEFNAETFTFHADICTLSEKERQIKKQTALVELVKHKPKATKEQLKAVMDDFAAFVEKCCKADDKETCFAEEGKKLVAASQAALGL
# Description: (§3) A phage ELISA was performed according to the protocol of Section 5 with the following modifications. 1×10¹⁰ phage were either heat-treated (10 minutes at 80° C. in 100 μL aliquots) or left untreated. The samples were centrifuged for 10 minutes at 14,000 rpm at 4° C. and the supernatants were added to ELISA wells coated with HSA (with a dilution series of ⅓). After developing the ELISA, the OD450 nm values (y-axis) for each heat treated/unheated phage pair were plotted against the phage number α-axis) and the %-refoldability was calculated.
# human serum albumin [3] = target: T4, human serum albumin; assay: phage ELISA on HSA, purified phage, 1/3 dilution series
# Description: as §3
# human serum albumin [4] = target: T4, human serum albumin; assay: phage ELISA on HSA, heated against unheated
# Description: The ELISA wells were coated overnight at 4° C. with one of the following ligands: 10 μg/ml of protein A in PBS, 10 μg/ml of mAb 9E10 in PBS, or 3 mg/ml of HEL in 0.1 M NaHCO₃ buffer, pH 9.6. After blocking the wells with PBS containing 2% Tween-20 (PBST), a dilution series of phage in PBST was incubated for 2 h. After washing with PBS, bound phage were detected as follows. In assays for binding to REL, phage was detected directly using a conjugate of horseradish peroxidase with an anti-M13 monoclonal antibody (Amersham) using 3,3′,5,5′-tetramethylbenzidine as substrate. In assays for binding to protein A, the phage (4×10¹⁰ TU/ml in PBS) was first biotinylated at 4° C. with biotin-NHS (Perbio) (50 μM final concentration) and detected by sequential addition of streptavidin-horseradish peroxidase conjugate (1 μg/ml) (Sigma-Aldrich) in PBST, and substrate as above. In assays for binding to human serum albumin (USA) (Sigma, coating at 10 μg/ml in PBS), the ELISA was performed in PBS supplemented with 2% skim-milk powder (PBSM) and bound phage were detected in two steps using a rabbit anti-fd bacteriophage monoclonal antibody (Sigma, 1/1000 dilution) and goat anti-rabbit IgG serum conjugated with horseradish peroxidase (Sigma, 1/1000 dilution) and substrate as above.
# protein A [5] = target: T3, protein A; assay: phage ELISA on protein A, heated 80 C against unheated, three data points
# Description: as §1, §2
# These clones were characterized for refoldability on phage (according to the protocol of Section 5, but with three data points being taken) and in solution.
# TNF-α [6] = target: T5, TNF-α (UniProt P01375 77-233); assay: RBA-ELISA: dAb competes with binding of soluble TNF-α to immobilised TNF-α receptor
# T5 construct: also called tumour necrosis factor
# T5 sequence (P01375 77-233 limits assumed): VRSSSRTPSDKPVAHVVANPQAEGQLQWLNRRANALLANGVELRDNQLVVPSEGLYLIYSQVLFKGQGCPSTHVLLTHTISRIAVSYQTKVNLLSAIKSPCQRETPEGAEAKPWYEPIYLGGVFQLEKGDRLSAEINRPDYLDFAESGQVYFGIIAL
# TNF-α [7] = target: T5, TNF-α; assay: phage ELISA on TNF-α coated wells, heated 80 C 10 min against unheated
# TNF-α [8] = target: T5, TNF-α; assay: RBA-ELISA
# [9] = target: T1, TNF receptor 1 Fc fusion protein; assay: receptor binding ELISA: dAb mixed with TNF (10 ng/ml) and added to TNFR1-Fc captured by anti-human Fc; bound TNF detected with biotinylated anti-TNF antibody; blocked ligand TNF
# Description: Briefly, MAXISORP plates were incubated overnight with 30Mg/ml anti-human Fc mouse monoclonal antibody (Zymed, San Francisco, USA). […] The reaction was stopped by the addition of HCl and the absorbance was read at 450 mm.
# [10] = target: T2, human Tumor Necrosis Factor Receptor 1 …; assay: cell-based or functional assay
binder,measurement,setting,value
"pA-C59 (other, Frameworks of DP47d, ranges as for HEL4) VH: EVQLLESGGGLVQPGGSLRLSCAASGDSISDDYMAWVRQAPGKGLEWVSSIDDKNGSTYYADSVKGRFTISRDNSKNTLYLQMNSLRAEDTAVYYCAGGDGQAHKVDYWGQGTLVTVSS",% refolding (protein A binding retained after heating),protein A [1],25%
"anti-HSA VH clone #3 (other, As clone #1) VH: EVQLLESGGGLVQPGGSLRLSCAASGFTFSKYWMSWVRQAPGKGLEWVSSIDFMGPHTYYADSVKGRFTISRDNSKNTLYLQMNSLRAEDTAVYYCAKGRTSMLPMKGKFDYWGQGTLVTVSS",Refoldability (HSA binding retained after heating),human serum albumin [2],0.55%
same,"phage number, +Heat",human serum albumin [3],1e+10 phage
same,"phage number, -Heat",human serum albumin [3],5.5e+07 phage
same,% HSA binding signal retained after heating,human serum albumin [4],< 10%
"pA-C36 (other, Frameworks of DP47d, ranges as for HEL4; also called pA-36) VH: EVQLLESGGGLVQPGGSLRLSCAASGVNVSHDSMTWVRQAPGKGLEWVSAIRGPNGSTYYADSVKGRFTISRDNSKNTLYLQMNSLRAEDTAVYYCASGARHADTERPPSQQTMPFWGQGTLVTVSS",Refoldability on phage (protein A binding retained after heating),protein A [5],80%
same,% refolding (protein A binding retained after heating),protein A [1],25%
"pA-C47 (other, Frameworks of DP47d, ranges as for HEL4) VH: EVQLLESGGGLVQPGGSLRLSCAASGYNITDENMAWVRQAPGKGLEWVSTIAADNGSTYYADSVKGRFTISRDNSKNTLYLQMNSLRAEDTAVYYCATTEAAGVEEDNVRSWGQGTLVTVSS",% refolding (protein A binding retained after heating),protein A [1],25%
"anti-HSA VH clone #6 (other, As clone #1) VH: EVQLLESGGGLVQPGGSLRLSCAASGFTFHRYSMSWVRQAPGKGLEWVSTILPGGDVTYYADSVKGRFTISRDNSKNTLYLQMNSLRAEDTAVYYCAKQTPDYMFDYWGQGTLVTVSS",Refoldability (HSA binding retained after heating),human serum albumin [2],< 0.2%
same,"phage number, +Heat",human serum albumin [3],9.75e+09 phage
same,"phage number, -Heat",human serum albumin [3],2.1e+07 phage
same,% HSA binding signal retained after heating,human serum albumin [4],< 10%
"anti-HSA VH clone #10 (other, As clone #1; the one clone recovered with the heat step) VH: EVQLLESGGGLVQPGGSLRLSCAASGFTFDEYNMSWVRQAPGKGLEWVSTILPHGDRTYYADSVKGRFTISRDNSKNTLYLQMNSLRAEDTAVYYCAKQDPLYRFDYWGQGTLVTVSS",Refoldability (HSA binding retained after heating),human serum albumin [2],~100%
same,"phage number, +Heat",human serum albumin [3],1e+10 phage
same,"phage number, -Heat",human serum albumin [3],1e+10 phage
"anti-HSA VH clone #4 (other, As clone #1) VH: EVQLLESGGGLVQPGGSLRLSCAASGFTFYDYNMSWVRQAPGKGLEWVSTITHTGGVTYYADSVKGRFTISRDNSKNTLYLQMNSLRAEDTAVYYCAKQNPSYQFDYWGQGTLVTVSS",Refoldability (HSA binding retained after heating),human serum albumin [2],9.1%
same,"phage number, +Heat",human serum albumin [3],1e+10 phage
same,"phage number, -Heat",human serum albumin [3],5.7e+08 phage
same,% HSA binding signal retained after heating,human serum albumin [4],< 10%
"anti-HSA VH clone #2 (other, As clone #1) VH: EVQLLESGGGLVQPGGSLRLSCAASGFTFSDYRMSWVRQAPGKGLEWVSTIISNGKFTYYADSVKGRFTISRDNSKNTLYLQMNSLRAEDTAVYYCAKQDWMYMFDYWGQGTLVTVSS","phage number, +Heat",human serum albumin [3],1e+10 phage
same,"phage number, -Heat",human serum albumin [3],1.3e+09 phage
same,% HSA binding signal retained after heating,human serum albumin [4],< 10%
"pA-C13 (other, From the library made by diversifying the CDR loops of DP47d; frameworks of DP47d, ranges as for HEL4; also called Clone 13) VH: EVQLLESGGGLVQPGGSLRLSCAASGDMVNDKDMSWVRQAPGKGLEWVSSISTENGSTYYADSVKGRFTISRDNSKNTLYLQMNSLRAEDTAVYYCAGVRDEVAMGENPDLSYWGQGTLVTVSS",% refolding (protein A binding retained after heating),protein A [1],35%
"TAR1-5-19 (other, Vκ1 single domain (dAb) specific for TNF-α; also called PEP1-5-19) VL: DIQMTQSPSSLSASVGDRVTITCRASQSIDSYLHWYQQKPGKAPKLLIYSASELQSGVPSRFSGSGSGTDFTLTISSLQPEDFATYYCQQVVWRPFTFGQGTKVEIKR",IC50,TNF-α [6],30 nM
same,% refolding (TNF-α binding retained after heating),TNF-α [7],80%
TAR1-5-19-Y49N (other) VL: DIQMTQSPSSLSASVGDRVTITCRASQSIDSYLHWYQQKPGKAPKLLINSASELQSGVPSRFSGSGSGTDFTLTISSLQPEDFATYYCQQVVWRPFTFGQGTKVEIKR,IC50,TNF-α [6],900 nM
same,% refolding (TNF-α binding retained after heating),TNF-α [7],98%
same,fold reduction of binding against TAR1-5-19,TNF-α [8],6 to 20 fold
TAR1-5-19-Y49D (other) VL: DIQMTQSPSSLSASVGDRVTITCRASQSIDSYLHWYQQKPGKAPKLLIDSASELQSGVPSRFSGSGSGTDFTLTISSLQPEDFATYYCQQVVWRPFTFGQGTKVEIKR,IC50,TNF-α [6],200 nM
same,% refolding (TNF-α binding retained after heating),TNF-α [7],93%
same,fold reduction of binding against TAR1-5-19,TNF-α [8],6 to 20 fold
"anti-HSA VH clone #7 (other, As clone #1) VH: EVQLLESGGGLVQPGGSLRLSCAASGFTFWKYNMAWVRQAPGKGLEWVSTILGEGNNTYYADSVKGRFTISRDNSKNTLYLQMNSLRAEDTAVYYCAKTMDYKFDYWGQGTLVTVSS",% HSA binding signal retained after heating,human serum albumin [4],< 10%
"anti-HSA VH clone #1 (other, From library 4G (human VH3, DP47 germline gene + JH4 segment)) VH: EVQLLESGGGLVQPGGSLRLSCAASGFTFDLYDMSWVRQAPGKGLEWVSSIVNSGVRTYYADSVKGRFTISRDNSKNTLYLQMNSLRAEDTAVYYCAKLNQSYHWDFDYWGQGTLVTVSS",Refoldability (HSA binding retained after heating),human serum albumin [2],1.5%
same,"phage number, +Heat",human serum albumin [3],1e+10 phage
same,"phage number, -Heat",human serum albumin [3],1.5e+08 phage
same,% HSA binding signal retained after heating,human serum albumin [4],< 10%
"DP47 F27D/F29V (other, name in Kabat numbering) VH: EVQLLESGGGLVQPGGSLRLSCAASGDTVSSYAMSWVRQAPGKGLEWVSAISGSGGSTYYADSVKGRFTISRDNSKNTLYLQMNSLRAEDTAVYYCAKSYGAFDYWGQGTLVTVSS",Refoldability on phage (protein A binding retained after heating),protein A [5],62%
"DP47 quadruple mutant F27D/F29V/S35G/Y32E (other, name in Kabat numbering) VH: EVQLLESGGGLVQPGGSLRLSCAASGDTVSSEAMGWVRQAPGKGLEWVSAISGSGGSTYYADSVKGRFTISRDNSKNTLYLQMNSLRAEDTAVYYCAKSYGAFDYWGQGTLVTVSS",% refolding (protein A binding retained after heating),protein A [1],29.5%
"DP47 F27D/F29V/Y32D/S35G (other, name in Kabat numbering, kept apart as printed) VH: EVQLLESGGGLVQPGGSLRLSCAASGDTVSSDAMGWVRQAPGKGLEWVSAISGSGGSTYYADSVKGRFTISRDNSKNTLYLQMNSLRAEDTAVYYCAKSYGAFDYWGQGTLVTVSS",Refoldability on phage (protein A binding retained after heating),protein A [5],80%
"DP47 S30N/A33D (other, name in Kabat numbering, also called A33D/S30N) VH: EVQLLESGGGLVQPGGSLRLSCAASGFTFNSYDMSWVRQAPGKGLEWVSAISGSGGSTYYADSVKGRFTISRDNSKNTLYLQMNSLRAEDTAVYYCAKSYGAFDYWGQGTLVTVSS",Refoldability on phage (protein A binding retained after heating),protein A [5],81%
same,% refolding (protein A binding retained after heating),protein A [1],2.11%
"DP47 S53P/G54D (other, name in Kabat numbering) VH: EVQLLESGGGLVQPGGSLRLSCAASGFTFSSYAMSWVRQAPGKGLEWVSAISGPDGSTYYADSVKGRFTISRDNSKNTLYLQMNSLRAEDTAVYYCAKSYGAFDYWGQGTLVTVSS",Refoldability on phage (protein A binding retained after heating),protein A [5],19%
"pA-C76 (other, Frameworks of DP47d, ranges as for HEL4) VH: EVQLLESGGGLVQPGGSLRLSCAASGDNVISDDMSWVRQAPGKGLEWVSTINGPSGSTYYADSVKGRFTISRDNSKNTLYLQMNSLRAEDTAVYYCAANGEDTDMLDMWGDRSAALKSWGQGTLVTVSS",% refolding (protein A binding retained after heating),protein A [1],35%
"TAR2-10-27 (other, Human VH3 single domain (dAb) against human TNFR1, tested as soluble protein purified on protein A beads) VH: EVQLLESGGGLVQPGGSLRLSCAASGFTFEWYWMGWVRQAPGKGLEWVSAISGSGGSTYYADSVKGRFTISRDNSKNTLYLQMNSLRAEDAAVYYCAKVKLGGGPNFGYRGQGTLVTVSS",IC50 (read off the curve),[9],~5 nM
same,"IC50 (read off the curve), inhibition of TNF-induced IL-8 secretion of HeLa cells",[10],~10 nM
"TAR2-10-27-F27D (other, Soluble dAb) VH: EVQLLESGGGLVQPGGSLRLSCAASGDTFEWYWMGWVRQAPGKGLEWVSAISGSGGSTYYADSVKGRFTISRDNSKNTLYLQMNSLRAEDAAVYYCAKVKLGGGPNFGYRGQGTLVTVSS",IC50 (read off the curve),[9],~6 nM
TAR2-10-27-Y32D (other) VH: EVQLLESGGGLVQPGGSLRLSCAASGFTFEWDWMGWVRQAPGKGLEWVSAISGSGGSTYYADSVKGRFTISRDNSKNTLYLQMNSLRAEDAAVYYCAKVKLGGGPNFGYRGQGTLVTVSS,"IC50 (read off the curve), inhibition of TNF-induced IL-8 secretion of HeLa cells",[10],~5 nM
